Reference: patent publication US20210054016

Legend:
[1] = tested on: T1, H3C2 RNA capping enzyme (Faustovirus D5b) (Faustovirus D5b); details: pseudouridine in place of U; 5' triphosphate; 37 C, 100 nM enzyme; larger than U counterpart
T1 sequence: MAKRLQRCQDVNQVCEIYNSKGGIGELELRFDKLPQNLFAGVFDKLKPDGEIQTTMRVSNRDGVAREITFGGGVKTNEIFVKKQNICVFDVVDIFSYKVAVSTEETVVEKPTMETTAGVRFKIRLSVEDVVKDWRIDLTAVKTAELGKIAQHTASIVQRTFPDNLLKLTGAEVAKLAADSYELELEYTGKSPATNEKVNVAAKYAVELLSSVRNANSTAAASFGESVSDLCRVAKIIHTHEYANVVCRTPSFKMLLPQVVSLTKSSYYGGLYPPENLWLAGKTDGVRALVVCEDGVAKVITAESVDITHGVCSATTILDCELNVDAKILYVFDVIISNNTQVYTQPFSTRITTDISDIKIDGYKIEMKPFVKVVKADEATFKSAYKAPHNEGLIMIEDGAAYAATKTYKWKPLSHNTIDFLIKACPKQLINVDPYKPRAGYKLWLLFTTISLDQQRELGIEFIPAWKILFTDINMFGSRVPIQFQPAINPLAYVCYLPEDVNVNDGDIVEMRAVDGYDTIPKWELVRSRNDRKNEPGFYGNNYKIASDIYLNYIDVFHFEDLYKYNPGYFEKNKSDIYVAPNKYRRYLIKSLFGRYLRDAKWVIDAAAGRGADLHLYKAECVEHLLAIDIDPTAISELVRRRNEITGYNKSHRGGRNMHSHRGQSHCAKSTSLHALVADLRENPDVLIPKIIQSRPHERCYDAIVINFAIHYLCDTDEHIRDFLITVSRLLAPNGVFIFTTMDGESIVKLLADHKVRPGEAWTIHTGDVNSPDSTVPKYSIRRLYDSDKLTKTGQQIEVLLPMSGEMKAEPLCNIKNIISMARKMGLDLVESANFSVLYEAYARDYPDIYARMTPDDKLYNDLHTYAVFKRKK

[2] = biological target: Vaccinia capping enzyme (VCE) (Vaccinia virus) (UniProt P04298+P04318); details: pseudouridine in place of U; 5' triphosphate; 37 C, 100 nM enzyme; larger than U counterpart

In the case of cluc/A120 transcript with pseudouridine, the activity [1] is reported as 100 % capped and the activity [2] is reported as 68.4 % capped.
